According to the supplement of paper PMC9112550, “Optimization of the antimicrobial peptide Bac7 by deep mutational scanning” (BMC Biology, 2022):

system: Escherichia coli TOP10; assay: shrunken log2 fold change of peptide-encoding DNA abundance (4.5 h post-induction vs induction); higher = less antimicrobial activity (less host growth inhibition); conditions: time post-induction: 4.5 h; library: site-saturation at positions 5, 18, 19, 20
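Note: peptides expressed intracellularly from a pBAD plasmid library in pooled LB shake-flask culture, induced with 0.3% L-arabinose, DNA abundance read by NGS, three biological replicates, DESeq2 with apeglm shrinkage.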

Sequence | shrunken log2 fold change
RRIRGRPPRLPRPRPRPSYTPRP | 0.307
RRIRGRPPRLPRPRPRPTCIPRP | 0.351
RRIRGRPPRLPRPRPRPTCSPRP | 0.991
RRIRGRPPRLPRPRPRPTDGPRP | 0.361
RRIRGRPPRLPRPRPRPTEIPRP | 0.284
RRIRGRPPRLPRPRPRPTFIPRP | -0.0836
RRIRGRPPRLPRPRPRPTFKPRP | 0.538
RRIRGRPPRLPRPRPRPTFQPRP | 0.59
RRIRGRPPRLPRPRPRPTFSPRP | 0.162
RRIRGRPPRLPRPRPRPTFYPRP | 0.264
RRIRGRPPRLPRPRPRPTGHPRP | 0.448
RRIRGRPPRLPRPRPRPTHAPRP | 1.3
RRIRGRPPRLPRPRPRPTHQPRP | 0.615
RRIRGRPPRLPRPRPRPTLEPRP | 1.22
RRIRGRPPRLPRPRPRPTLNPRP | 0.835
RRIRGRPPRLPRPRPRPTMEPRP | 0.751
RRIRGRPPRLPRPRPRPTMPPRP | 0.425
RRIRGRPPRLPRPRPRPTMVPRP | 0.786
RRIRGRPPRLPRPRPRPTPWPRP | 0.848
RRIRGRPPRLPRPRPRPTQSPRP | 1.08
RRIRGRPPRLPRPRPRPTQTPRP | 0.775
RRIRGRPPRLPRPRPRPTRDPRP | 0.965
RRIRGRPPRLPRPRPRPTRHPRP | 0.764
RRIRGRPPRLPRPRPRPTRSPRP | 1.18
RRIRGRPPRLPRPRPRPTSPPRP | 0.491

Sequence | shrunken log2 fold change
RRIRGRPPRLPRPRPRPTTMPRP | 0.451
RRIRGRPPRLPRPRPRPTVDPRP | 0.836
RRIRGRPPRLPRPRPRPTVKPRP | 0.642
RRIRGRPPRLPRPRPRPTVQPRP | 0.796
RRIRGRPPRLPRPRPRPTWAPRP | 0.987
RRIRGRPPRLPRPRPRPTWIPRP | 0.25
RRIRGRPPRLPRPRPRPTWQPRP | 0.731
RRIRGRPPRLPRPRPRPTYIPRP | 0.111
RRIRGRPPRLPRPRPRPTYKPRP | 0.937
RRIRGRPPRLPRPRPRPVACPRP | 0.72
RRIRGRPPRLPRPRPRPVAEPRP | 1.38
RRIRGRPPRLPRPRPRPVAGPRP | 1.12
RRIRGRPPRLPRPRPRPVCSPRP | 0.613
RRIRGRPPRLPRPRPRPVDLPRP | 0.687
RRIRGRPPRLPRPRPRPVDRPRP | 0.297
RRIRGRPPRLPRPRPRPVFQPRP | 0.519
RRIRGRPPRLPRPRPRPVFTPRP | 0.523
RRIRGRPPRLPRPRPRPVFYPRP | -0.0818
RRIRGRPPRLPRPRPRPVGIPRP | 0.414
RRIRGRPPRLPRPRPRPVGQPRP | 0.145
RRIRGRPPRLPRPRPRPVGWPRP | 1.26
RRIRGRPPRLPRPRPRPVHLPRP | 0.034
RRIRGRPPRLPRPRPRPVIVPRP | 0.626
RRIRGRPPRLPRPRPRPVKRPRP | 0.248
RRIRGRPPRLPRPRPRPVMEPRP | 0.546

Sequence | shrunken log2 fold change
RRIRGRPPRLPRPRPRPVMYPRP | 0.237
RRIRGRPPRLPRPRPRPVNPPRP | 0.127
RRIRGRPPRLPRPRPRPVPDPRP | 0.958
RRIRGRPPRLPRPRPRPVQIPRP | 0.335
RRIRGRPPRLPRPRPRPVQLPRP | 0.0748
RRIRGRPPRLPRPRPRPVRKPRP | 1.72
RRIRGRPPRLPRPRPRPVRQPRP | 0.883
RRIRGRPPRLPRPRPRPVRSPRP | 0.902
RRIRGRPPRLPRPRPRPVSDPRP | 1.26
RRIRGRPPRLPRPRPRPVSEPRP | 0.797
RRIRGRPPRLPRPRPRPVSFPRP | 0.392
RRIRGRPPRLPRPRPRPVSKPRP | 0.276
RRIRGRPPRLPRPRPRPVTDPRP | 0.394
RRIRGRPPRLPRPRPRPVVAPRP | 1.19
RRIRGRPPRLPRPRPRPVWNPRP | 0.0596
RRIRGRPPRLPRPRPRPWAPPRP | 0.452
RRIRGRPPRLPRPRPRPWDKPRP | 0.067
RRIRGRPPRLPRPRPRPWETPRP | 0.272
RRIRGRPPRLPRPRPRPWEYPRP | -0.00088
RRIRGRPPRLPRPRPRPWGWPRP | 1.15
RRIRGRPPRLPRPRPRPWHLPRP | -0.188
RRIRGRPPRLPRPRPRPWIAPRP | -0.0596
RRIRGRPPRLPRPRPRPWILPRP | 0.112
RRIRGRPPRLPRPRPRPWIYPRP | -0.372
RRIRGRPPRLPRPRPRPWKNPRP | -0.138

Sequence | shrunken log2 fold change
RRIRGRPPRLPRPRPRPWKQPRP | 0.152
RRIRGRPPRLPRPRPRPWLTPRP | 0.134
RRIRGRPPRLPRPRPRPWMHPRP | -0.00858
RRIRGRPPRLPRPRPRPWMIPRP | 0.268
RRIRGRPPRLPRPRPRPWMTPRP | 0.034
RRIRGRPPRLPRPRPRPWNEPRP | -0.14
RRIRGRPPRLPRPRPRPWNGPRP | 0.0616
RRIRGRPPRLPRPRPRPWPQPRP | 0.498
RRIRGRPPRLPRPRPRPWPTPRP | 0.233
RRIRGRPPRLPRPRPRPWRGPRP | 0.228
RRIRGRPPRLPRPRPRPWRRPRP | 0.054
RRIRGRPPRLPRPRPRPWSIPRP | -0.108
RRIRGRPPRLPRPRPRPWTHPRP | -0.0708
RRIRGRPPRLPRPRPRPWTQPRP | 0.236
RRIRGRPPRLPRPRPRPWVCPRP | 0.0844
RRIRGRPPRLPRPRPRPWVSPRP | -0.0322
RRIRGRPPRLPRPRPRPWVVPRP | 0.273
RRIRGRPPRLPRPRPRPWWEPRP | 0.0256
RRIRGRPPRLPRPRPRPWWQPRP | 0.644
RRIRGRPPRLPRPRPRPYADPRP | 0.0582
RRIRGRPPRLPRPRPRPYAEPRP | 1.19
RRIRGRPPRLPRPRPRPYDGPRP | -0.387
RRIRGRPPRLPRPRPRPYDHPRP | -0.181
RRIRGRPPRLPRPRPRPYECPRP | -0.075
RRIRGRPPRLPRPRPRPYFFPRP | 0.0463

Sequence | shrunken log2 fold change
RRIRGRPPRLPRPRPRPYFKPRP | -0.366
RRIRGRPPRLPRPRPRPYHEPRP | 0.182
RRIRGRPPRLPRPRPRPYHGPRP | -0.459
RRIRGRPPRLPRPRPRPYHLPRP | -1.27
RRIRGRPPRLPRPRPRPYHRPRP | -0.203
RRIRGRPPRLPRPRPRPYKAPRP | -0.354
RRIRGRPPRLPRPRPRPYKHPRP | -0.463
RRIRGRPPRLPRPRPRPYLKPRP | -0.0688
RRIRGRPPRLPRPRPRPYLPPRP | -0.204
RRIRGRPPRLPRPRPRPYMAPRP | -0.388
RRIRGRPPRLPRPRPRPYMTPRP | 0.109
RRIRGRPPRLPRPRPRPYNDPRP | -0.155
RRIRGRPPRLPRPRPRPYNEPRP | -0.329
RRIRGRPPRLPRPRPRPYNSPRP | -0.359
RRIRGRPPRLPRPRPRPYPMPRP | -0.142
RRIRGRPPRLPRPRPRPYPQPRP | 0.12
RRIRGRPPRLPRPRPRPYQHPRP | -0.376
RRIRGRPPRLPRPRPRPYTYPRP | -0.0842
RRIRGRPPRLPRPRPRPYVCPRP | -0.00206
RRIRGRPPRLPRPRPRPYVMPRP | -0.0513
RRIRGRPPRLPRPRPRPYVTPRP | 0.0521
RRIRGRPPRLPRPRPRPYWSPRP | -0.251
RRIRGRPPRLPRPRPRPYYAPRP | -0.242
RRIRGRPPRLPRPRPRPYYIPRP | -0.233
RRIRGRPPRLPRPRPRPYYQPRP | -0.537

Sequence | shrunken log2 fold change
RRIRGRPPRLPRPRPRPYYTPRP | 1.19
RRIRHRPPRLPRPRPRPAALPRP | -0.0796
RRIRHRPPRLPRPRPRPAAVPRP | 0.0752
RRIRHRPPRLPRPRPRPACDPRP | 0.285
RRIRHRPPRLPRPRPRPACSPRP | -0.104
RRIRHRPPRLPRPRPRPAENPRP | -0.0113
RRIRHRPPRLPRPRPRPAFHPRP | -0.152
RRIRHRPPRLPRPRPRPAHYPRP | -0.139
RRIRHRPPRLPRPRPRPAIRPRP | -0.000964
RRIRHRPPRLPRPRPRPALMPRP | -0.0655
RRIRHRPPRLPRPRPRPAMSPRP | 0.0912
RRIRHRPPRLPRPRPRPAMYPRP | -0.0134
RRIRHRPPRLPRPRPRPANLPRP | -0.00674
RRIRHRPPRLPRPRPRPANNPRP | -0.613
RRIRHRPPRLPRPRPRPAQHPRP | -0.14
RRIRHRPPRLPRPRPRPASEPRP | -0.131
RRIRHRPPRLPRPRPRPATNPRP | 0.607
RRIRHRPPRLPRPRPRPAVIPRP | -0.0639
RRIRHRPPRLPRPRPRPAVQPRP | -0.0994
RRIRHRPPRLPRPRPRPAVVPRP | -0.182
RRIRHRPPRLPRPRPRPAYMPRP | 0.0834
RRIRHRPPRLPRPRPRPCCLPRP | -0.82
RRIRHRPPRLPRPRPRPCDIPRP | -0.0274
RRIRHRPPRLPRPRPRPCELPRP | 0.00567
RRIRHRPPRLPRPRPRPCFCPRP | -0.226
